Results on one molecule are retold here after article PMC8881611, “A mechanism of origin licensing control through autoinhibition of S. cerevisiae ORC·DNA·Cdc6” (Nature Communications, 2022).

The target of assay [1] is T1, ScORC·DNA·Cdc6 with MBP-tagged ORC holding Orc6 ΔCBN/Δlinker (Orc6Δ1-269), ORC phosphorylated by CDK (S. cerevisiae, UniProt P54784 1-914; P32833 1-620; P54790 1-616; P54791 1-529; P50874 1-479; P38826 …, ORC treated with CDK; phosphorylated sites not given).
T1 construct: Orc1, S. cerevisiae, wild type; Orc2, S. cerevisiae, wild type; Orc3, S. cerevisiae, wild type; Orc4, S. cerevisiae, wild type; Orc5, S. cerevisiae, wild type; Orc6, S. cerevisiae, truncation Orc6Δ1-269 (lacks the N-terminal cyclin box fold and the flexible linker); Cdc6, S. cerevisiae, wild type; ORC phosphorylated by CDK before assembly with DNA, Cdc6 and ATPγS; also called Orc6 ΔCBN/Δlinker, …
The assay can be described thus: pull-down; amylose pulldown, ORC with MBP-tagged Orc4 as bait; 0.5 uM ScORC, 0.5 uM 84 bp ARS1 dsDNA, 1 uM ScCdc6, 10 uM ScMcm7 (titrations 1.5, 5, 10 uM), 2 mM ATPγS; 25 mM HEPES pH 7.5, 300 mM potassium acetate, 10 mM magnesium acetate, 1 mM DTT; on ice; maltose elution, Coomassie-stained SDS-PAGE. The following applies: both partners purified.

Assay [2] addresses T2, ScORC·DNA·Cdc6 with MBP-tagged ORC (full-length Orc6), ORC dephosphorylated with λ phosphatase (S. cerevisiae, UniProt P54784 1-914; P32833 1-620; P54790 1-616; P54791 1-529; P50874 1-479; P38826 …, ORC treated with λ phosphatase | ORC treated with λ phosphatase).
T2 construct: Orc1, S. cerevisiae, wild type; Orc2, S. cerevisiae, wild type; Orc3, S. cerevisiae, wild type; Orc4, S. cerevisiae, wild type; Orc5, S. cerevisiae, wild type; Orc6, S. cerevisiae, wild type; Cdc6, S. cerevisiae, wild type; ORC (10 uM) dephosphorylated with 16.7 units/uL λ phosphatase, 10 min, 30 °C, before assembly with DNA, Cdc6 and ATPγS; also called dephosphorylated MBP-ORC·DNA·Cdc6; source: …
The assay is described as above. The following applies: both partners purified.

B1: S. cerevisiae Mcm7 (ScMcm7) (natural protein, UniProt P38132 1-845, looked up)
chain: MSAALPSIQLPVDYNNLFNEITDFLVTFKQDTLSSDATRNENEDENLDAENIEQHLLEKGPKYMAMLQKVANRELNSVIIDLDDILQYQNEKFLQGTQADDLVSAIQQNANHFTELFCRAIDNNMPLPTKEIDYKDDVLDVILNQRRLRNERMLSDRTNEIRSENLMDTTMDPPSSMNDALREVVEDETELFPPNLTRRYFLYFKPLSQNCARRYRKKAISSKPLSVRQIKGDFLGQLITVRGIITRVSDVKPAVEVIAYTCDQCGYEVFQEVNSRTFTPLSECTSEECSQNQTKGQLFMSTRASKFSAFQECKIQELSQQVPVGHIPRSLNIHVNGTLVRSLSPGDIVDVTGIFLPAPYTGFKALKAGLLTETYLEAQFVRQHKKKFASFSLTSDVEERVMELITSGDVYNRLAKSIAPEIYGNLDVKKALLLLLVGGVDKRVGDGMKIRGDINVCLMGDPGVAKSQLLKAICKISPRGVYTTGKGSSGVGLTAAVMKDPVTDEMILEGGALVLADNGICCIDEFDKMDESDRTAIHEVMEQQTISISKAGINTTLNARTSILAAANPLYGRYNPRLSPLDNINLPAALLSRFDILFLMLDIPSRDDDEKLAEHVTYVHMHNKQPDLDFTPVEPSKMREYIAYAKTKRPVMSEAVNDYVVQAYIRLRQDSKREMDSKFSFGQATPRTLLGIIRLSQALAKLRLADMVDIDDVEEALRLVRVSKESLYQETNKSKEDESPTTKIFTIIKKMLQETGKNTLSYENIVKTVRLRGFTMLQLSNCIQEYSYLNVWHLINEGNTLKFVDDGTMDTDQEDSLVSTPKLAPQTTASANVSAQDSDIDLQDA
notes: Mcm7, S. cerevisiae; migrates as a doublet on SDS-PAGE; source: E. coli BL21 RIL, purified (HisTrap, amylose, TEV cleavage, HisTrap, gel filtration); not shown: His6, N-terminal, cleaved; MBP, N-terminal, cleaved
Take B1: the binding result in assay [1] and in assay [2] was “binds” throughout.
